In patent publication US20260234280A1:
Values belong to the substance of their own block, whether it stands above or below them.

Legend:
[1] = biological target: human BCMA and human GPRC5D, the dual targets expressed on NCI-H929 and RPMI8226 tumor cells; assay: flow cytometry (FACS), RPMI8226 cells
[2] = biological target: human BCMA and human GPRC5D, the dual targets expressed on NCI-H929 and RPMI8226 tumor cells; assay: flow cytometry (FACS), NCI-H929 cells
[3] = biological target: human BCMA (human-BCMA) (human) (UniProt Q02223); assay: cell-based or functional assay
soluble BCMA = soluble BCMA (UniProt Q02223); assay: cell-based or functional assay
[4] = biological target: human BCMA recombinant protein (Acro, Cat. No. BCA-H522y) (human) (UniProt Q02223); assay: SPR (Biacore), antibody captured by anti-human IgG (Fc) on CM5 chip, BCMA as analyte, 1:1 model
[5] = biological target: cynomolgus monkey BCMA recombinant protein (Acro, Cat. No. BCA-C52H7) (cynomolgus monkey); assay: as above
[6] = biological target: human BCMA (human-BCMA) (human) (UniProt Q02223); assay: flow cytometry (FACS), RPMI8226 cells
[7] = biological target: human BCMA (human-BCMA) (human) (UniProt Q02223); assay: flow cytometry (FACS), human BCMA-CHOK1 cells
[8] = biological target: cynomolgus monkey CD3 naturally expressed on cyno PBMCs (cynomolgus monkey) (UniProt Q95LI5); assay: flow cytometry (FACS), cyno PBMCs
[9] = biological target: human CD3 naturally expressed on Jurkat T lymphocytes and human PBMCs (human) (UniProt P07766); assay: flow cytometry (FACS), Jurkat cells
[10] = biological target: human CD3 recombinant protein (Acro, Cat. No. CDD-H52W1) (human) (UniProt P07766); assay: SPR (Biacore), CD3 immobilised on CM5 chip, antibody as analyte, 1:1 model
[11] = biological target: cynomolgus monkey CD3 recombinant protein (Acro, Cat. No. CDD-C52W4) (cynomolgus monkey) (UniProt Q95LI5); assay: as above
[12] = biological target: human GPRC5D (human-GPRC5D) (human) (UniProt Q9NZD1); assay: flow cytometry (FACS), human GPRC5D-CHOK1 cells
[13] = biological target: human BCMA (human-BCMA) (human) (UniProt Q02223); assay: flow cytometry (FACS), NCI-H929 cells
[14] = biological target: human CD3 naturally expressed on Jurkat T lymphocytes and human PBMCs (human) (UniProt P07766); assay: flow cytometry (FACS), human PBMCs
[15] = biological target: cynomolgus monkey BCMA (cyno-BCMA) (cynomolgus monkey); assay: flow cytometry (FACS), cynomolgus monkey BCMA-CHOK1 cells
Sequence of cynomolgus monkey BCMA (cyno-BCMA) (cynomolgus monkey) (Q02223 other isoform, or with tags, fused parts or gaps): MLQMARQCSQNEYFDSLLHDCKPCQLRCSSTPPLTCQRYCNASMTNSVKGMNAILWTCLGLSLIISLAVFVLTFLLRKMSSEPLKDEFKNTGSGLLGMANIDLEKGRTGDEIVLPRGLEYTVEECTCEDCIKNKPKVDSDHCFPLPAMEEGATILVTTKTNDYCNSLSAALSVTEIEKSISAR

Sequence of soluble BCMA (Q02223 1-54 limits assumed): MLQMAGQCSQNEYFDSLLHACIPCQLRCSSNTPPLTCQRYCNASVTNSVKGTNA
Sequence of human BCMA recombinant protein (Acro, Cat. No. BCA-H522y) (human) (Q02223 1-54 limits assumed): as above
Sequence of human CD3 recombinant protein (Acro, Cat. No. CDD-H52W1) (human) (P07766 23-126): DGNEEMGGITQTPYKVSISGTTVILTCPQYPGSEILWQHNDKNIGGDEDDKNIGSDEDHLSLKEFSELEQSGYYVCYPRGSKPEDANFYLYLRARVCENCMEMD
Sequence of cynomolgus monkey CD3 recombinant protein (Acro, Cat. No. CDD-C52W4) (cynomolgus monkey) (Q95LI5 22-117): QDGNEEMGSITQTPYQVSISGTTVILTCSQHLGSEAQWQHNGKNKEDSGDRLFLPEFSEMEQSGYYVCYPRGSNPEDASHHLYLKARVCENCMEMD
Sequence of human CD3 naturally expressed on Jurkat T lymphocytes and human PBMCs (human) (P07766 23-207): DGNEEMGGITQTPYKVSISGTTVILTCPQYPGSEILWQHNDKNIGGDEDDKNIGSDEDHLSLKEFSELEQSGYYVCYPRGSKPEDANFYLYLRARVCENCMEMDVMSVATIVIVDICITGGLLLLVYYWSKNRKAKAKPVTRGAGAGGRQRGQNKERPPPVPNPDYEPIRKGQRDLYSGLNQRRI
Sequence of human BCMA (human-BCMA) (human) (Q02223 whole entry): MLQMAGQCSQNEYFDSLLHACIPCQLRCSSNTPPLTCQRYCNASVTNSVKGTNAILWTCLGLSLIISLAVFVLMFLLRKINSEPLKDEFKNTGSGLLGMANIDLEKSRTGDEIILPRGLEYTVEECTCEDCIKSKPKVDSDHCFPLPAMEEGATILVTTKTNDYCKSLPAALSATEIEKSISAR
Sequence of cynomolgus monkey CD3 naturally expressed on cyno PBMCs (cynomolgus monkey) (Q95LI5 22-198): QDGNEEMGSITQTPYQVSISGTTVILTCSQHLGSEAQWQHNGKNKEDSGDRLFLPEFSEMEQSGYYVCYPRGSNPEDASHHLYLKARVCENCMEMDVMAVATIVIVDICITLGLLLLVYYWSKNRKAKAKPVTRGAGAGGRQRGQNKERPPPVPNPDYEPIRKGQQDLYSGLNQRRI
Sequence of human GPRC5D (human-GPRC5D) (human) (Q9NZD1 whole entry): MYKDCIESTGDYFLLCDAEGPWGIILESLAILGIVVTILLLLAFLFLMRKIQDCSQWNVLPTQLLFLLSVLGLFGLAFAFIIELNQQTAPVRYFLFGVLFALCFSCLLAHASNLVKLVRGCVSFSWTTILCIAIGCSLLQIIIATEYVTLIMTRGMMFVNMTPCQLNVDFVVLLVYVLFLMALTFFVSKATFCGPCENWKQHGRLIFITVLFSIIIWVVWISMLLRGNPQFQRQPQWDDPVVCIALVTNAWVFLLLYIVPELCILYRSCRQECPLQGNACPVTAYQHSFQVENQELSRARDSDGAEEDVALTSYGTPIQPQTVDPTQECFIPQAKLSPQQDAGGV

- Top MFI [1]: 112 MFI
- Top MFI [2]: 104 MFI
Substance: hIgG1 LALA isotype (Biointron, Cat. No. B109802) (antibody)

Substance: Teclistamab analogue (BCMA/CD3), BCMAxCD3 bispecific antibody from Janssen
- TDCC Cytotoxicity (max) on NCI-H929 with 0 ug/ml BCMA [3]: 40.9
- TDCC EC50 (nM) on NCI-H929 with 0 ug/ml BCMA [3]: 0.115 nM
- Ratio (EC50), TDCC on NCI-H929 with 2.5 ug/ml against 0 ug/ml BCMA (soluble BCMA): 21
- TDCC Cytotoxicity (max) on NCI-H929 with 2.5 ug/ml BCMA (soluble BCMA): 53.9
- TDCC EC50 (nM) on NCI-H929 with 2.5 ug/ml BCMA (soluble BCMA): 2.36 nM
- fold change of TDCC EC50 on NCI-H929 in the presence of 2500 ng/ml soluble BCMA (soluble BCMA): 25 fold
- Kd [4]: 0.379 nM
- koff [4]: 0.00135 s⁻¹
- kon [4]: 3.55e+06 M⁻¹ s⁻¹
- Kd [5]: 8.49 nM
- koff [5]: 0.0235 s⁻¹
- kon [5]: 2.77e+06 M⁻¹ s⁻¹
- EC50 [6]: 1.17 nM
- Top MFI [6]: 169 MFI
- EC50 [7]: 2.63 nM
- Top MFI [7]: 2280 MFI
- EC50 [8]: 55.8 nM
- Top MFI [8]: 2060 MFI
- EC50 [9]: 3.22 nM
- Top MFI [9]: 825 MFI
- Kd [10]: 21 nM
- koff [10]: 0.00522 s⁻¹
- kon [10]: 248000 M⁻¹ s⁻¹
- Kd [11]: 21.1 nM
- koff [11]: 0.00336 s⁻¹
- kon [11]: 159000 M⁻¹ s⁻¹
- Top MFI [12]: 160 MFI
- EC50 [13]: 2.43 nM
- Top MFI [13]: 669 MFI
- EC50 [14]: 6.06 nM
- Top MFI [14]: 672 MFI
- EC50 [15]: 15.3 nM
- Top MFI [15]: 1770 MFI

- Kd [10]: 18 nM
- koff [10]: 0.00201 s⁻¹
- kon [10]: 112000 M⁻¹ s⁻¹
- Kd [11]: 22.2 nM
- koff [11]: 0.00379 s⁻¹
- kon [11]: 170000 M⁻¹ s⁻¹
Substance: Talquetamab analogue (GPRC5D/CD3), GPRC5DxCD3 bispecific antibody from Janssen
